For assay [1], the target named is T1, GDF11 (human, UniProt O95390).
T1 chain: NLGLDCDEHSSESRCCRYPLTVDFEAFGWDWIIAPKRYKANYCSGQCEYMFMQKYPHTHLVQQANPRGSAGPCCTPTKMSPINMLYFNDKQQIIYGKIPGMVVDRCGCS
As to the kind of experiment: SPR, very low signal.

Assay [2] has as its target T2, Activin A (human, UniProt P08476).
T2 chain: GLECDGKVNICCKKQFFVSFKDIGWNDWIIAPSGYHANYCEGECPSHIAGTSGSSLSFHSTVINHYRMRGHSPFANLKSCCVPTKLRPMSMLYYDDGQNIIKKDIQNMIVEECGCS
Briefly: SPR.

Assay [3] deals with T3, GDF8 (human, UniProt O14793). As to the kind of experiment: SPR.
T3 sequence (O14793 267-375): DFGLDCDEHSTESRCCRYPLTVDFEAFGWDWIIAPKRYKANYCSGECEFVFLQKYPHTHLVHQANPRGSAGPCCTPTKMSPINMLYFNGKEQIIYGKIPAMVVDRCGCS
The target in assay [4] is T1, GDF11. As to the kind of experiment: SPR.
Assay [5] concerns the target T4, Activin B (human, UniProt P09529).
T4 chain: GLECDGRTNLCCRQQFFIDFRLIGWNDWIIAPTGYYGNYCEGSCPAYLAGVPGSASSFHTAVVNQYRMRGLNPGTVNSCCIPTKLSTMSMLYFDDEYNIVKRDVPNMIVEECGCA
Briefly: SPR.

In assay [6] the target is T2, Activin A. Briefly: SPR.
The target of assay [7] is T2, Activin A. Briefly: SPR.
The target in assay [8] is T1, GDF11. Briefly: SPR.
The target of the next assay is T5, GDF3 (human, UniProt Q9NR23).
T5 chain: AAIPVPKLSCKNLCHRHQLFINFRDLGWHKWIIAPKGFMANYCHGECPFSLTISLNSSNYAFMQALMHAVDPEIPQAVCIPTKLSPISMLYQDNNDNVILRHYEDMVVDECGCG
Briefly: SPR.

The target of the next assay is T6, BMP9 (human, UniProt Q9UK05).
T6 chain: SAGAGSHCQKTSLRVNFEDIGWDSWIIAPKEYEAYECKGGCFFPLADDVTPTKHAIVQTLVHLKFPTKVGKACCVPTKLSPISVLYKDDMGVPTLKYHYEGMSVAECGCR
As to the kind of experiment: SPR, transient.

For a further assay, the target named is T7, BMP6 (human, UniProt P22004).
T7 chain: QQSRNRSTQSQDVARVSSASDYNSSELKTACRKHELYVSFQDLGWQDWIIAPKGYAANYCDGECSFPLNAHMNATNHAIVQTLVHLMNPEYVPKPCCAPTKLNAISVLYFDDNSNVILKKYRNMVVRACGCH
As to the kind of experiment: SPR.

For assay [9], the target named is T2, Activin A. As to the kind of experiment: SPR.
The target in assay [10] is T4, Activin B. Briefly: SPR.
Another assay addresses T8, BMP10 (human, UniProt O95393).
T8 chain: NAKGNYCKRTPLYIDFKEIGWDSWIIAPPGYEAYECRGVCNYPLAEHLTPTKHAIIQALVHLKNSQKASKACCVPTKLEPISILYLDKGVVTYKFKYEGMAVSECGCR
As to the kind of experiment: SPR.

The target in assay [11] is T3, GDF8. As to the kind of experiment: SPR. The source holds these as a separate data set.
Assay [12] addresses T1, GDF11. Briefly: SPR.

Read-outs that look alike come from different tables or passages of the source.

The record followed here is US10722558 (dated 2020).

B1: ALK4-Fc homodimer (protein)
chain: SGPRGVQALLCACTSCLQANYTCETDGACMVSIFNLDGMEHHVRTCIPKVELVPAGKPFYCLSSEDLRNTHCCYTDYCNRIDLRVPSGHLKEPEHPSMWGPVE
On to B1, for which binding with GDF11 [1] was put at a Kd of 0.27 nM.

B2: ActRIIB(R64K 20-129)-hFc (protein)
chain: GRGEAETRECIYYNANWELERTNQSGLERCEGEQDKRLHCYASWKNSSGTIELVKKGCWLDDFNCYDRQECVATEENPQVYFCCCEGNFCNERFTHLPEAGGPEVTYEPP
As to B2, the Kd worked out at 0.0841 nM with Activin A [2] and 2.15 nM with GDF8 [3].

B3: ActRIIB(L79D 20-134)-hFc (protein)
chain: GRGEAETRECIYYNANWELERTNQSGLERCEGEQDKRLHCYASWRNSSGTIELVKKGCWDDDFNCYDRQECVATEENPQVYFCCCEGNFCNERFTHLPEAGGPEVTYEPPPTAPTGGGTHTCPPCPAPELLGGPSVFLFPPKPKDTLMISRTPEVTCVVVDVSHEDPEVKFNWYVDGVEVHNAKTKPREEQYNSTYRVVSVLTVLHQDWLNGKEYKCKVSNKALPVPIEKTISKAKGQPREPQVYTLPPSREEMTKNQVSLTCLVKGFYPSDIAVEWESNGQPENNYKTTPPVLDSDGSFFLYSKLTVDKSRWQQGNVFSCSVMHEALHNHYTQKSLSLSPGK
For B3, the Kd in the assay with GDF11 [4] was 0.123 nM; in the assay with Activin B [5], 0.788 nM; in the assay with Activin A [6], 13.5 nM.

B4: ActRIIB-Fc +15tail (protein)
chain: GRGEAETRECIYYNANWELERTNQSGLERCEGEQDKRLHCYASWRNSSGTIELVKKGCWLDDFNCYDRQECVATEENPQVYFCCCEGNFCNERFTHLPEAGGPEVTYEPPPTAPTGGGTHTCPPCPAPELLGGPSVFLFPPKPKDTLMISRTPEVTCVVVDVSHEDPEVKFNWYVDGVEVHNAKTKPREEQYNSTYRVVSVLTVLHQDWLNGKEYKCKVSNKALPVPIEKTISKAKGQPREPQVYTLPPSREEMTKNQVSLTCLVKGFYPSDIAVEWESNGQPENNYKTTPPVLDSDGSFFLYSKLTVDKSRWQQGNVFSCSVMHEALHNHYTQKSLSLSPGK
In the case of B4, in the assay with Activin A [7], the Kd is around 26 nM.

B5: ALK4-Fc:ActRIIB-Fc heterodimer (protein)
chain 1: SGPRGVQALLCACTSCLQANYTCETDGACMVSIFNLDGMEHHVRTCIPKVELVPAGKPFYCLSSEDLRNTHCCYTDYCNRIDLRVPSGHLKEPEHPSMWGPVETGGGTHTCPPCPAPELLGGPSVFLFPPKPKDTLMISRTPEVTCVVVDVSHEDPEVKFNWYVDGVEVHNAKTKPREEQYNSTYRVVSVLTVLHQDWLNGKEYKCKVSNKALPAPIEKTISKAKGQPREPQVYTLPPSREEMTKNQVSLTCLVKGFYPSDIAVEWESNGQPENNYDTTPPVLDSDGSFFLYSDLTVDKSRWQQGNVFSCSVMHEALHNHYTQKSLSLSPG
chain 2: GRGEAETRECIYYNANWELERTNQSGLERCEGEQDKRLHCYASWRNSSGTIELVKKGCWLDDFNCYDRQECVATEENPQVYFCCCEGNFCNERFTHLPEAGGPEVTYEPPPTAPTGGGTHTCPPCPAPELLGGPSVFLFPPKPKDTLMISRTPEVTCVVVDVSHEDPEVKFNWYVDGVEVHNAKTKPREEQYNSTYRVVSVLTVLHQDWLNGKEYKCKVSNKALPAPIEKTISKAKGQPREPQVYTLPPSRKEMTKNQVSLTCLVKGFYPSDIAVEWESNGQPENNYKTTPPVLKSDGSFFLYSKLTVDKSRWQQGNVFSCSVMHEALHNHYTQKSLSLSPGK
As to B5, the Kd with GDF11 [8] worked out at 0.003 nM; with GDF3, 4.9 nM; in the assay with BMP9, 3.4 nM; in the assay with BMP6, 2.7 nM; in the assay with Activin A [9], 0.012 nM; with Activin B [10], 0.006 nM. In addition, the Kd with BMP10 is 0.074 nM; with GDF8 [11] it was 0.55 nM.

B6: ActRIIB(20-134)-hFc (protein)
chain: GRGEAETRECIYYNANWELERTNQSGLERCEGEQDKRLHCYASWRNSSGTIELVKKGCWLDDFNCYDRQECVATEENPQVYFCCCEGNFCNERFTHLPEAGGPEVTYEPPPTAPTGGGTHTCPPCPAPELLGGPSVFLFPPKPKDTLMISRTPEVTCVVVDVSHEDPEVKFNWYVDGVEVHNAKTKPREEQYNSTYRVVSVLTVLHQDWLNGKEYKCKVSNKALPVPIEKTISKAKGQPREPQVYTLPPSREEMTKNQVSLTCLVKGFYPSDIAVEWESNGQPENNYKTTPPVLDSDGSFFLYSKLTVDKSRWQQGNVFSCSVMHEALHNHYTQKSLSLSPGK
For the molecule B6, the Kd with GDF11 [4] stood at 0.036 nM; in the assay with Activin B [5] it was 0.012 nM; in the assay with Activin A [6], 0.016 nM.

B7: ActRIIB-Fc K55A (protein)
chain: GRGEAETRECIYYNANWELERTNQSGLERCEGEQDKRLHCYASWRNSSGTIELVAKGCWLDDFNCYDRQECVATEENPQVYFCCCEGNFCNERFTHLPEAGGPEVTYEPPPTAPTGGGTHTCPPCPAPELLGGPSVFLFPPKPKDTLMISRTPEVTCVVVDVSHEDPEVKFNWYVDGVEVHNAKTKPREEQYNSTYRVVSVLTVLHQDWLNGKEYKCKVSNKALPVPIEKTISKAKGQPREPQVYTLPPSREEMTKNQVSLTCLVKGFYPSDIAVEWESNGQPENNYKTTPPVLDSDGSFFLYSKLTVDKSRWQQGNVFSCSVMHEALHNHYTQKSLSLSPGK
In the case of B7, in the assay with GDF11 [12], the binding result was “no binding”.
